Experimental data taken from patent US12723255B2, “Herbicide tolerance genes and methods of use thereof” (priority 2014, dated 2026).

How the values were obtained:
[1] = format: biochemical; conditions: for temperature sensitivity compared with the wild-type enzyme: substrate 2,4-D, lower T1/2 than wild-type
Protocol: To analyze these engineered proteins for activity in higher temperatures, the in vitro enzyme assay in Example 1 was modified to specify pre-heating all of the assay components to the desired temperature for 5 minutes before combining the components and then maintaining the reaction at the desired temperature for the duration of the reaction. To normalize the assay measurements, quizalofop-P was used as the substrate for the reaction and enzyme activity was normalized based on the 25° C. readings. Using these parameters, the temperature at which the enzyme activity was half of maximum (T1/2) was calculated. The T1/2 for MON-HT55 was calculated to be 29° C., and the T1/2 for wild-type RdpA was calculated to be 38° C. (FIG. 2A).
Enzyme activity over a range of temperatures was analyzed in-depth for MON-HT1, MON-HT2, MON-HT7, and MON-HT8. These assays were conducted as described above. Quizalofop-P or 2,4-D was used as the substrate for these reactions and activity was normalized based on the activity of the wild-type enzyme at 25° C. The activity curves obtained are presented in FIG. 2B (with quizalofop-P as the substrate) and FIG. 2C (with 2,4-D as the substrate). Using quizalofop-P as the substrate, MON-HT55 was the most temperature sensitive, with a T1/2 of 29° C. […] MON-HTI was slightly less temperature sensitive, with a T1/2 about 1° C. higher than the wild-type enzyme.

[2] = test system: mRNA transcribed from the transgene cassette; experiment: Quantigene analysis of transgene mRNA expression in leaf samples; conditions: normalized to maize housekeeping genes, average of eight samples
Source text: Leaf samples were collected from the plants containing transgene cassettes encoding MON-HT1, MON-HT2, and MON-HT8 with and without CTP sequences to determine expression of the mRNA transcribed from the transgene cassette encoding the engineered proteins. Quantigene® analysis was done on the leaf sample extracts to determine mRNA expression of the transgene cassette. For these assays, the probe was to the common 3′-UTR sequence present in each expression cassette used to generate the transgenic plants. Relative expression was calculated by normalizing to maize housekeeping genes. A leaf sample was collected from each of eight plants for each construct configuration used to make the transgenic plants, and the reported relative mRNA expression data is an average of the eight samples with standard error.

[3] = test system: F1 hybrid maize plants; experiment: trait efficacy field trial, quizalofop-P pressure screening, F1 hybrid; format: in vivo; conditions: crop injury percentage; for 4X Qizalofop-P CIPV4 / 4X Qizalofop-P CIPV8: 0.32 lb ai/acre at VE-V2, V4, V8; for 8X Qizalofop-P CIPV4 / 8X Qizalofop-P CIPV8: 0.64 lb ai/acre at VE-V2, V4, V8; for 16X Qizalofop-P CIPV4 / 16X Qizalofop-P CIPV8: 1.28 lb ai/acre at VE-V2, V4, V8
Protocol: (§1) Separate trait efficacy field trials for quizalofop-P and 2,4-D pressure screening were conducted at one location each with F1 hybrid transgenic plants produced by crossing an inbred plant containing maize event MON89034 with an R1 plant containing MON-HT1, MON-HT2, MON-HT8, MON-HT9, and MON-HT10 with and without operably linked CTP sequences. Transgenic F1 hybrid plants containing maize events NK603×MON89034 were used for comparison as a control.
In the trait efficacy field trial for quizalofop-P tolerance, one of three herbicide treatments was used: (1) quizalofop-P (Assure II) at 0.32 lb ai/acre (4×) plus 0.25% v/v non-ionic surfactant (NIS) applied at VE-V2 growth stage followed by the same at V4 growth stage followed by the same at V8 growth stage; (2) quizalofop-P at 0.64 lb ai/acre (8×) plus 0.25% v/v NIS applied at VE-V2 growth stage followed by the same at V4 growth stage followed by the same at V8 growth stage; or (3) quizalofop-P at 1.28 lb ai/acre (16×) plus 0.25% v/v NIS applied at VE-V2 growth stage followed by the same at V4 growth stage followed by the same at V8 growth stage. Plots were visually rated as above. […] The injury rating for the control plants after all quizalofop-P application was 100%. Error was calculated using LSD (0.05).

[4] = test system: F1 hybrid maize plants; experiment: trait efficacy field trial, 2,4-D pressure screening, F1 hybrid; format: in vivo; conditions: crop injury percentage; for 4X 2,4-D CIPV4 / 4X 2,4-D CIPV8: 4 lb ae/acre at VE-V2, V4, V8; for 8X 2,4-D CIPV4 / 8X 2,4-D CIPV8: 8 lb ae/acre at VE-V2, V4, V8; for 16X 2,4-D CIPV4 / 16X 2,4-D CIPV8: 16 lb ae/acre at VE-V2, V4, V8
Protocol: as §1
Three herbicide treatments were used in the trait efficacy field trial for 2,4-D tolerance: (1) 2,4-D amine at 4 lb ac/acre (4×) plus 0.25% v/v NIS applied to VE-V2 followed by V4 followed by V8; (2) 2,4-D amine at 8 lb ac/acre (8×) plus 0.25% v/v NIS applied to VE-V2 followed by V4followed by V8 maize; or (3) 2,4-D amine at 16 lb ac/acre (16×) plus 0.25% v/v NIS applied to VE-V2 followed by V4 followed by V8. Plots were visually rated as above.
The injury rating for the control plants after all 2,4-D applications ranged from 80% to 96.25%. At the highest rate of 2,4-D (16×) applied through V8, the plants containing MON-HT1 or MON-HT2 operably linked to any of the three CTPs (A, B, or C) had better tolerance than plants containing MON-HT1 or MON-HT2 not operably linked to a CTP. Plants containing MON-HT1, MON-HT2, or MON-HT8 with or without an operably linked CTP had better tolerance to 2,4-D at all applications tested compared to plants containing either MON-HT9 or MON-HT10 with an operably linked ‘A’ CTP. Over the range of 2,4-D applications the relative ranking of tolerance was: plants containing MON-HT1 had better tolerance than plants containing MON-HT2 which were in turn better than plants containing MON-HT8. […] Error was calculated using LSD (0.05).

B1: MON-HT8: engineered oxygenase protein, amino acid sequence SEQ ID NO:37 (protein)
chain: MHAALTPLTNKYRFIDVQPLTGVLGAEITGVDLREPLDDSTWNEILDAFHTYQVIYFPGQAITNEQHIAFSRRFGPVDPVPILKSIEGYPEVQMIRREANESGRVIGDDWHTDSTFLDAPPAAVVMRAIEVPEYGGDTGFLSMYSAWETLSPTMQATIEGLNVVHSATKVFGSLYQATNWRFSNTSVKVMDVDAGDRETVHPLVVTHPVTGRRALYCNQVYCQKIQGMTDAESKSLLQFLYEHATKFDFTCRVRWKKDQVLVWDNLCTMHRSVPDYGNAFRYLTRTTVAGDKPSR
- T1/2, temperature at which the enzyme activity was half of maximum [1]: 41 °C
- temperature sensitivity compared with the wild-type enzyme [1]: slightly more temperature sensitive
- Relative Expression ([2]; CTP A): 8.06
- Relative Expression ([2]; CTP B): 7.62
- Relative Expression ([2]; CTP C): 4.87
- 4X Qizalofop-P CIPV4 ([3]; CTP A): 15
- 4X Qizalofop-P CIPV8 ([3]; CTP A): 15
- 8X Qizalofop-P CIPV4 ([3]; CTP A): 37.5
- 8X Qizalofop-P CIPV8 ([3]; CTP A): 35
- 16X Qizalofop-P CIPV4 ([3]; CTP A): 60
- 16X Qizalofop-P CIPV8 ([3]; CTP A): 50
- 4X Qizalofop-P CIPV4 ([3]; CTP B): 5
- 4X Qizalofop-P CIPV8 ([3]; CTP B): 7.5
- 8X Qizalofop-P CIPV4 ([3]; CTP B): 32.5
- 8X Qizalofop-P CIPV8 ([3]; CTP B): 35
- 16X Qizalofop-P CIPV4 ([3]; CTP B): 27.5
- 16X Qizalofop-P CIPV8 ([3]; CTP B): 30
- 4X Qizalofop-P CIPV4 ([3]; CTP C): 55
- 4X Qizalofop-P CIPV8 ([3]; CTP C): 45
- 8X Qizalofop-P CIPV4 ([3]; CTP C): 75
- 8X Qizalofop-P CIPV8 ([3]; CTP C): 55
- 16X Qizalofop-P CIPV4 ([3]; CTP C): 85
- 16X Qizalofop-P CIPV8 ([3]; CTP C): 72.5
- 4X 2,4-D CIPV4 ([4]; CTP A): 7.5
- 4X 2,4-D CIPV8 ([4]; CTP A): 5
- 8X 2,4-D CIPV4 ([4]; CTP A): 10
- 8X 2,4-D CIPV8 ([4]; CTP A): 12.5
- 16X 2,4-D CIPV4 ([4]; CTP A): 15
- 16X 2,4-D CIPV8 ([4]; CTP A): 30
- 4X 2,4-D CIPV4 ([4]; CTP B): 5
- 4X 2,4-D CIPV8 ([4]; CTP B): 7.5
- 8X 2,4-D CIPV4 ([4]; CTP B): 10
- 8X 2,4-D CIPV8 ([4]; CTP B): 27.5
- 16X 2,4-D CIPV4 ([4]; CTP B): 10
- 16X 2,4-D CIPV8 ([4]; CTP B): 20
- 4X 2,4-D CIPV4 ([4]; CTP C): 10
- 4X 2,4-D CIPV8 ([4]; CTP C): 7.5
- 8X 2,4-D CIPV4 ([4]; CTP C): 10
- 8X 2,4-D CIPV8 ([4]; CTP C): 17.5
- 16X 2,4-D CIPV4 ([4]; CTP C): 17.5
- 16X 2,4-D CIPV8 ([4]; CTP C): 25

B2: MON-HT2: engineered oxygenase protein, amino acid sequence SEQ ID NO:18 (protein)
chain: MHAALTPLTNKYRFIDVQPLTGVLGAEITGVDLREPLDDSTWNEILDAFHTYQVIYFPGQAITNEQHIAFSRRFGPVDPVPLLKSIEGYPEVQMIRREANESSRVIGDDWHSDSTFLDAPPAAVVMRAIEVPEYGGDTGFLSMYSAWETLSPTMQATIEGLNVVHSATKVFGSLYQATNWRFSNTSVKVMDVDAGDRETVHPLVVTHPVTGRRALYCNQVYCQKIQGMTDAESKSLLQFLYEHATKFDFTCRVRWKKDQVLVWDNLCTMHRAAPDYAGKFRYLTRTTVAGDKPSR
- T1/2, temperature at which the enzyme activity was half of maximum [1]: 46 °C
- temperature sensitivity compared with the wild-type enzyme [1]: slightly more temperature sensitive
- Relative Expression ([2]; CTP A): 6.96
- Relative Expression ([2]; CTP B): 6.16
- Relative Expression ([2]; CTP C): 4.11
- Relative Expression ([2]; no CTP): 4.66
- 4X Qizalofop-P CIPV4 ([3]; CTP A): 0
- 4X Qizalofop-P CIPV8 ([3]; CTP A): 5
- 8X Qizalofop-P CIPV4 ([3]; CTP A): 2.5
- 8X Qizalofop-P CIPV8 ([3]; CTP A): 7.5
- 16X Qizalofop-P CIPV4 ([3]; CTP A): 5
- 16X Qizalofop-P CIPV8 ([3]; CTP A): 15
- 4X Qizalofop-P CIPV4 ([3]; CTP B): 0
- 4X Qizalofop-P CIPV8 ([3]; CTP B): 5
- 8X Qizalofop-P CIPV4 ([3]; CTP B): 0
- 8X Qizalofop-P CIPV8 ([3]; CTP B): 10
- 16X Qizalofop-P CIPV4 ([3]; CTP B): 0
- 16X Qizalofop-P CIPV8 ([3]; CTP B): 20
- 4X Qizalofop-P CIPV4 ([3]; CTP C): 0
- 4X Qizalofop-P CIPV8 ([3]; CTP C): 5
- 8X Qizalofop-P CIPV4 ([3]; CTP C): 5
- 8X Qizalofop-P CIPV8 ([3]; CTP C): 12.5
- 16X Qizalofop-P CIPV4 ([3]; CTP C): 12.5
- 16X Qizalofop-P CIPV8 ([3]; CTP C): 20
- 4X Qizalofop-P CIPV4 ([3]; no CTP): 35
- 4X Qizalofop-P CIPV8 ([3]; no CTP): 45
- 8X Qizalofop-P CIPV4 ([3]; no CTP): 50
- 8X Qizalofop-P CIPV8 ([3]; no CTP): 37.5
- 16X Qizalofop-P CIPV4 ([3]; no CTP): 70
- 16X Qizalofop-P CIPV8 ([3]; no CTP): 55
- 4X 2,4-D CIPV4 ([4]; CTP A): 5
- 4X 2,4-D CIPV8 ([4]; CTP A): 5
- 8X 2,4-D CIPV4 ([4]; CTP A): 10
- 8X 2,4-D CIPV8 ([4]; CTP A): 7.5
- 16X 2,4-D CIPV4 ([4]; CTP A): 10
- 16X 2,4-D CIPV8 ([4]; CTP A): 20
- 4X 2,4-D CIPV4 ([4]; CTP B): 5
- 4X 2,4-D CIPV8 ([4]; CTP B): 5
- 8X 2,4-D CIPV4 ([4]; CTP B): 5
- 8X 2,4-D CIPV8 ([4]; CTP B): 10
- 16X 2,4-D CIPV4 ([4]; CTP B): 10
- 16X 2,4-D CIPV8 ([4]; CTP B): 25
- 4X 2,4-D CIPV4 ([4]; CTP C): 10
- 4X 2,4-D CIPV8 ([4]; CTP C): 15
- 8X 2,4-D CIPV4 ([4]; CTP C): 10
- 8X 2,4-D CIPV8 ([4]; CTP C): 10
- 16X 2,4-D CIPV4 ([4]; CTP C): 15
- 16X 2,4-D CIPV8 ([4]; CTP C): 20
- 4X 2,4-D CIPV4 ([4]; no CTP): 7.5
- 4X 2,4-D CIPV8 ([4]; no CTP): 7.5
- 8X 2,4-D CIPV4 ([4]; no CTP): 17.5
- 8X 2,4-D CIPV8 ([4]; no CTP): 42.5
- 16X 2,4-D CIPV4 ([4]; no CTP): 25
- 16X 2,4-D CIPV8 ([4]; no CTP): 45
